Test results from patent US20090068653A1, “BIOCHEMICAL AND GENETIC ANALYSIS FOR PREDICTION OF BREAST CANCER RISK” (priority 2006, published 2009).
Where two headings read alike, the source gives them in different places.

Legend:
renal cancer = conditions: hamster, in vivo; cited from earlier work
[1] = cited from earlier work
CYP1B1 = conditions: cited from earlier work

Molecule | Km (CYP1B1; reaction E2 → 2-OHE2, CYP1B1) | Km (CYP1B1; reaction E2 → 4-OHE2, CYP1B1) | further results
C[C@]12CC[C@@H]3c4cc(O)c(O)cc4CC[C@H]3[C@@H]1CCC2=O [2-OHE1] | – | – | induction of renal cancer (renal cancer): not
CC/C(=C(\c1ccccc1)c1ccc(OCCNC)cc1)c1ccccc1 [N-desmethyl tamoxifen] | – | – | average steady-state plasma concentration ([1]; 10 mg tamoxifen twice daily for 3 months, patients): 336 ng/mL; average steady-state plasma concentration ([1]; 20 mg tamoxifen once daily for 3 months): 353 ng/mL; time to steady state concentrations after initiation of therapy ([1]; in vivo): about 8 weeks; average peak plasma concentration ([1]; single oral dose of 20 mg tamoxifen): 15 ng/mL; half-life ([1]; suggested by time to steady state): approximately 14 days
48Gly-119Ala-432Val-453Asn: CYP1B1 variant enzyme (protein, UniProt Q16678 1-543, looked up, variant R48G) Cytochrome P450 1B1: MGTSLSPNDPWPLNPLSIQQTTLLLLLSVLATVHVGQRLLRQRRRQLGSAPPGPFAWPLIGNAAAVGQAAHLSFARLARRYGDVFQIRLGSCPIVVLNGERAIHQALVQQGSAFADRPAFASFRVVSGGRSMAFGHYSEHWKVQRRAAHSMMRNFFTRQPRSRQVLEGHVLSEARELVALLVRGSADGAFLDPRPLTVVAVANVMSAVCFGCRYSHDDPEFRELLSHNEEFGRTVGAGSLVDVMPWLQYFPNPVRTVFREFEQLNRNFSNFILDKFLRHCESLRPGAAPRDMMDAFILSAEKKAAGDSHGGGARLDLENVPATITDIFGASQDTLSTALQWLLLLFTRYPDVQTRVQAELDQVVGRDRLPCMGDQPNLPYVLAFLYEAMRFSSFVPVTIPHATTANTSVLGYHIPKDTVVFVNQWSVNHDPLKWPNPENFDPARFLDKDGLINKDLTSRVMIFSVGKRRCIGEELSKMQLFLFISILAHQCDFRANPNEPAKMNFSYGLTIKPKSFKVNVTLRESMELLDSAVQNLQAKETCQ | 12 µM | 6.6 µM | –
48Arg-119Ser-432Val-453Ser: CYP1B1 variant enzyme (protein, UniProt Q16678 1-543, looked up, variant A119S N453S) Cytochrome P450 1B1: MGTSLSPNDPWPLNPLSIQQTTLLLLLSVLATVHVGQRLLRQRRRQLRSAPPGPFAWPLIGNAAAVGQAAHLSFARLARRYGDVFQIRLGSCPIVVLNGERAIHQALVQQGSAFADRPSFASFRVVSGGRSMAFGHYSEHWKVQRRAAHSMMRNFFTRQPRSRQVLEGHVLSEARELVALLVRGSADGAFLDPRPLTVVAVANVMSAVCFGCRYSHDDPEFRELLSHNEEFGRTVGAGSLVDVMPWLQYFPNPVRTVFREFEQLNRNFSNFILDKFLRHCESLRPGAAPRDMMDAFILSAEKKAAGDSHGGGARLDLENVPATITDIFGASQDTLSTALQWLLLLFTRYPDVQTRVQAELDQVVGRDRLPCMGDQPNLPYVLAFLYEAMRFSSFVPVTIPHATTANTSVLGYHIPKDTVVFVNQWSVNHDPLKWPNPENFDPARFLDKDGLISKDLTSRVMIFSVGKRRCIGEELSKMQLFLFISILAHQCDFRANPNEPAKMNFSYGLTIKPKSFKVNVTLRESMELLDSAVQNLQAKETCQ | 36 µM | 17 µM | –
48Arg-119Ala-432Val-453Asn (wt): wild-type CYP1B1 enzyme (protein, UniProt Q16678 1-543, looked up) Cytochrome P450 1B1: MGTSLSPNDPWPLNPLSIQQTTLLLLLSVLATVHVGQRLLRQRRRQLRSAPPGPFAWPLIGNAAAVGQAAHLSFARLARRYGDVFQIRLGSCPIVVLNGERAIHQALVQQGSAFADRPAFASFRVVSGGRSMAFGHYSEHWKVQRRAAHSMMRNFFTRQPRSRQVLEGHVLSEARELVALLVRGSADGAFLDPRPLTVVAVANVMSAVCFGCRYSHDDPEFRELLSHNEEFGRTVGAGSLVDVMPWLQYFPNPVRTVFREFEQLNRNFSNFILDKFLRHCESLRPGAAPRDMMDAFILSAEKKAAGDSHGGGARLDLENVPATITDIFGASQDTLSTALQWLLLLFTRYPDVQTRVQAELDQVVGRDRLPCMGDQPNLPYVLAFLYEAMRFSSFVPVTIPHATTANTSVLGYHIPKDTVVFVNQWSVNHDPLKWPNPENFDPARFLDKDGLINKDLTSRVMIFSVGKRRCIGEELSKMQLFLFISILAHQCDFRANPNEPAKMNFSYGLTIKPKSFKVNVTLRESMELLDSAVQNLQAKETCQ | 24 µM | 14 µM | –
48Arg-119Ser-432Val-453Asn: CYP1B1 variant enzyme (protein, UniProt Q16678 1-543, looked up, variant A119S) Cytochrome P450 1B1: MGTSLSPNDPWPLNPLSIQQTTLLLLLSVLATVHVGQRLLRQRRRQLRSAPPGPFAWPLIGNAAAVGQAAHLSFARLARRYGDVFQIRLGSCPIVVLNGERAIHQALVQQGSAFADRPSFASFRVVSGGRSMAFGHYSEHWKVQRRAAHSMMRNFFTRQPRSRQVLEGHVLSEARELVALLVRGSADGAFLDPRPLTVVAVANVMSAVCFGCRYSHDDPEFRELLSHNEEFGRTVGAGSLVDVMPWLQYFPNPVRTVFREFEQLNRNFSNFILDKFLRHCESLRPGAAPRDMMDAFILSAEKKAAGDSHGGGARLDLENVPATITDIFGASQDTLSTALQWLLLLFTRYPDVQTRVQAELDQVVGRDRLPCMGDQPNLPYVLAFLYEAMRFSSFVPVTIPHATTANTSVLGYHIPKDTVVFVNQWSVNHDPLKWPNPENFDPARFLDKDGLINKDLTSRVMIFSVGKRRCIGEELSKMQLFLFISILAHQCDFRANPNEPAKMNFSYGLTIKPKSFKVNVTLRESMELLDSAVQNLQAKETCQ | 19 µM | 9.3 µM | –
48Gly-119Ser-432Val-453Asn: CYP1B1 variant enzyme (protein, UniProt Q16678 1-543, looked up, variant R48G A119S) Cytochrome P450 1B1: MGTSLSPNDPWPLNPLSIQQTTLLLLLSVLATVHVGQRLLRQRRRQLGSAPPGPFAWPLIGNAAAVGQAAHLSFARLARRYGDVFQIRLGSCPIVVLNGERAIHQALVQQGSAFADRPSFASFRVVSGGRSMAFGHYSEHWKVQRRAAHSMMRNFFTRQPRSRQVLEGHVLSEARELVALLVRGSADGAFLDPRPLTVVAVANVMSAVCFGCRYSHDDPEFRELLSHNEEFGRTVGAGSLVDVMPWLQYFPNPVRTVFREFEQLNRNFSNFILDKFLRHCESLRPGAAPRDMMDAFILSAEKKAAGDSHGGGARLDLENVPATITDIFGASQDTLSTALQWLLLLFTRYPDVQTRVQAELDQVVGRDRLPCMGDQPNLPYVLAFLYEAMRFSSFVPVTIPHATTANTSVLGYHIPKDTVVFVNQWSVNHDPLKWPNPENFDPARFLDKDGLINKDLTSRVMIFSVGKRRCIGEELSKMQLFLFISILAHQCDFRANPNEPAKMNFSYGLTIKPKSFKVNVTLRESMELLDSAVQNLQAKETCQ | 13 µM | 5.5 µM | –
48Gly-119Ala-432Val-453Ser: CYP1B1 variant enzyme (protein, UniProt Q16678 1-543, looked up, variant R48G N453S) Cytochrome P450 1B1: MGTSLSPNDPWPLNPLSIQQTTLLLLLSVLATVHVGQRLLRQRRRQLGSAPPGPFAWPLIGNAAAVGQAAHLSFARLARRYGDVFQIRLGSCPIVVLNGERAIHQALVQQGSAFADRPAFASFRVVSGGRSMAFGHYSEHWKVQRRAAHSMMRNFFTRQPRSRQVLEGHVLSEARELVALLVRGSADGAFLDPRPLTVVAVANVMSAVCFGCRYSHDDPEFRELLSHNEEFGRTVGAGSLVDVMPWLQYFPNPVRTVFREFEQLNRNFSNFILDKFLRHCESLRPGAAPRDMMDAFILSAEKKAAGDSHGGGARLDLENVPATITDIFGASQDTLSTALQWLLLLFTRYPDVQTRVQAELDQVVGRDRLPCMGDQPNLPYVLAFLYEAMRFSSFVPVTIPHATTANTSVLGYHIPKDTVVFVNQWSVNHDPLKWPNPENFDPARFLDKDGLISKDLTSRVMIFSVGKRRCIGEELSKMQLFLFISILAHQCDFRANPNEPAKMNFSYGLTIKPKSFKVNVTLRESMELLDSAVQNLQAKETCQ | 75 µM | 28 µM | –
48Arg-119Ala-432Val-453Ser: CYP1B1 variant enzyme (protein, UniProt Q16678 1-543, looked up, variant N453S) Cytochrome P450 1B1: MGTSLSPNDPWPLNPLSIQQTTLLLLLSVLATVHVGQRLLRQRRRQLRSAPPGPFAWPLIGNAAAVGQAAHLSFARLARRYGDVFQIRLGSCPIVVLNGERAIHQALVQQGSAFADRPAFASFRVVSGGRSMAFGHYSEHWKVQRRAAHSMMRNFFTRQPRSRQVLEGHVLSEARELVALLVRGSADGAFLDPRPLTVVAVANVMSAVCFGCRYSHDDPEFRELLSHNEEFGRTVGAGSLVDVMPWLQYFPNPVRTVFREFEQLNRNFSNFILDKFLRHCESLRPGAAPRDMMDAFILSAEKKAAGDSHGGGARLDLENVPATITDIFGASQDTLSTALQWLLLLFTRYPDVQTRVQAELDQVVGRDRLPCMGDQPNLPYVLAFLYEAMRFSSFVPVTIPHATTANTSVLGYHIPKDTVVFVNQWSVNHDPLKWPNPENFDPARFLDKDGLISKDLTSRVMIFSVGKRRCIGEELSKMQLFLFISILAHQCDFRANPNEPAKMNFSYGLTIKPKSFKVNVTLRESMELLDSAVQNLQAKETCQ | 49 µM | 21 µM | –
48Gly-119Ser-432Val-453Ser: CYP1B1 variant enzyme (protein, UniProt Q16678 1-543, looked up, variant R48G A119S N453S) Cytochrome P450 1B1: MGTSLSPNDPWPLNPLSIQQTTLLLLLSVLATVHVGQRLLRQRRRQLGSAPPGPFAWPLIGNAAAVGQAAHLSFARLARRYGDVFQIRLGSCPIVVLNGERAIHQALVQQGSAFADRPSFASFRVVSGGRSMAFGHYSEHWKVQRRAAHSMMRNFFTRQPRSRQVLEGHVLSEARELVALLVRGSADGAFLDPRPLTVVAVANVMSAVCFGCRYSHDDPEFRELLSHNEEFGRTVGAGSLVDVMPWLQYFPNPVRTVFREFEQLNRNFSNFILDKFLRHCESLRPGAAPRDMMDAFILSAEKKAAGDSHGGGARLDLENVPATITDIFGASQDTLSTALQWLLLLFTRYPDVQTRVQAELDQVVGRDRLPCMGDQPNLPYVLAFLYEAMRFSSFVPVTIPHATTANTSVLGYHIPKDTVVFVNQWSVNHDPLKWPNPENFDPARFLDKDGLISKDLTSRVMIFSVGKRRCIGEELSKMQLFLFISILAHQCDFRANPNEPAKMNFSYGLTIKPKSFKVNVTLRESMELLDSAVQNLQAKETCQ | 34 µM | 15 µM | –
461Thr-462Ile (wt*): purified recombinant wild-type CYP1A1 enzyme (protein, UniProt P04798 1-512, looked up) Cytochrome P450 1A1: MLFPISMSATEFLLASVIFCLVFWVIRASRPQVPKGLKNPPGPWGWPLIGHMLTLGKNPHLALSRMSQQYGDVLQIRIGSTPVVVLSGLDTIRQALVRQGDDFKGRPDLYTFTLISNGQSMSFSPDSGPVWAARRRLAQNGLKSFSIASDPASSTSCYLEEHVSKEAEVLISTLQELMAGPGHFNPYRYVVVSVTNVICAICFGRRYDHNHQELLSLVNLNNNFGEVVGSGNPADFIPILRYLPNPSLNAFKDLNEKFYSFMQKMVKEHYKTFEKGHIRDITDSLIEHCQEKQLDENANVQLSDEKIINIVLDLFGAGFDTVTTAISWSLMYLVMNPRVQRKIQEELDTVIGRSRRPRLSDRSHLPYMEAFILETFRHSSFVPFTIPHSTTRDTSLKGFYIPKGRCVFVNQWQINHDQKLWVNPSEFLPERFLTPDGAIDKVLSEKVIIFGMGKRKCIGETIARWEVFLFLAILLQRVEFSVPLGVKVDMTPIYGLTMKHACCEHFQMQLRS | – | – | Km (CYP1A1): 17 µM
